# Laboratory results taken from patent US20250092140A1 (published 2025).
# T1: human-NKP30-His (human, UniProt O14931 19-138)
# T1 chain: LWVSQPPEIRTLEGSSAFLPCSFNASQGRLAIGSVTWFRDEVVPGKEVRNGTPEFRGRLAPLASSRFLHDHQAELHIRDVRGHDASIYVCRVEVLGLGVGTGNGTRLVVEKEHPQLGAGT
# T2: HuB7H3-Fc (human, UniProt Q5ZPR3 29-245)
# T2 chain: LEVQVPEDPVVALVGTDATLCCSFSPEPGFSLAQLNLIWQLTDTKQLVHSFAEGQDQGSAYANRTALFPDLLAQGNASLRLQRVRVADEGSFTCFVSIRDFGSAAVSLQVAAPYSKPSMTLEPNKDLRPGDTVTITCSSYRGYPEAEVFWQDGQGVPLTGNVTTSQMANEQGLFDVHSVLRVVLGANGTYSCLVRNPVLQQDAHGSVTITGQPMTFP
# T3: HuB7H3-his (human, UniProt Q5ZPR3 29-245)
# T3 chain: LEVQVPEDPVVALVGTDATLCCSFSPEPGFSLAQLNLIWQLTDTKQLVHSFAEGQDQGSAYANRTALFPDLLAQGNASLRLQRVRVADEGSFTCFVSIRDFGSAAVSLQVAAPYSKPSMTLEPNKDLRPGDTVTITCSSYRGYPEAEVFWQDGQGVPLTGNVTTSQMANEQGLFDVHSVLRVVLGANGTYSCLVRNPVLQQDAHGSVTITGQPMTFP
# Assays:
# [1] = biological target: T1, human-NKP30-His; assay: ELISA
# [2] = biological target: T2, HuB7H3-Fc; assay: sandwich ELISA; dual binding, HuB7H3-Fc coated, NKP30-his detected
# [3] = biological target: T3, HuB7H3-his; assay: ELISA
EC50 [1] [µg/mL],EC50 [2] [µg/mL],EC50 [3] [µg/mL],Binder
0.00258,–,–,"NKP30 monoclonal antibody (antibody, V domains shown) VH: EVQLVESGGGLVQPGGSLRLSCAASGITFSRSVMGWFRQAPGKLRELVAGITSDDNTDYADSVKGRFTISRDNSKNTLYLQMNSLRAEDTAVYYCNILPDSRLGWGQGTLVTVSS"
–,0.445,–,constructed antibody D28 (bispecific antibody) heavy: not shown light: DIVMTQSPATLSVTPGDRVSLSCRASQSISDYLHWYQQKSHESPRLLIKYASQSISGIPSRFSGSGSGSDFTLSINSVEPEDVGVYYCQNGHSFPLTFGAGTKLELKRTVAAPSVFIFPPSDEQLKSGTASVVCLLNNFYPREAKVQWKVDNALQSGNSQESVTEQDSKDSTYSLSSTLTLSKADYEKHKVYACEVTHQGLSSPVTKSFNRGEC
0.00817,0.19,0.0526,constructed antibody A25 (bispecific antibody) heavy: not shown light: DIVMTQSPATLSVTPGDRVSLSCRASQSISDYLHWYQQKSHESPRLLIKYASQSISGIPSRFSGSGSGSDFTLSINSVEPEDVGVYYCQNGHSFPLTFGAGTKLELKRTVAAPSVFIFPPSDEQLKSGTASVVCLLNNFYPREAKVQWKVDNALQSGNSQESVTEQDSKDSTYSLSSTLTLSKADYEKHKVYACEVTHQGLSSPVTKSFNRGEC
